The data set is described as follows: In vivo clearance of radiolabelled neurotrophin-3 from the cochlea after supraparticle implantation (whole cochlear gamma counts). How it is done: In vivo studies were carried out to determine the drug payload and clearance of neurotrophin delivered in a supraparticle implanted into the ear after 4 hr, 3 day and 7 days of implantation. The objective was to determine the amount of neurotrophin remaining in the cochlea over time.
1 SP containing radiolabelled neurotrophin-3 was implanted into each cochlea. Cochleae were harvested following 4 hrs (n=5), 3d (n=7) or 7d (n=4). Whole cochlear gamma counts were measured to determine the clearance of neurotrophin-3 over time. After 1 week of implantation each SP contained ˜2 μg of neurotrophin-3 (˜40%) of initial loaded amount.
Further experiments (n=2) were carried out to examine clearance of neurotrophin-3 following round window delivery. 3 days after implantation-whole cochlear measurements were again used to determine the clearance of neurotrophin-3 from the round window membrane.

Setting [1] is: 1 SP implanted into each cochlea, after 1 week of implantation.

Consider “neurotrophin-3: Radiolabelled neurotrophin delivered in a supraparticle implanted into the cochlea”, for which the “neurotrophin-3 remaining (% of initial loaded amount)” value under setting [1] is approximately 40%. Moreover, under setting [1], the “neurotrophin-3 remaining per SP” value is approximately 2 µg. For the same substance, the neurotrophin-3 remaining is 56% (intracochlear delivery, 3 days) and 47.4% (round window delivery, 3 days after implantation).

Source of the values: patent US20250205308A1, “Supraparticles” (THE BIONICS INSTITUTE OF AUSTRALIA, priority 2017, published 2025).
